One block for each binder: values may come before it.
B1: Aβ1-16 (peptide, UniProt P05067 672-687, looked up)
peptide: DAEFRHDSGYEVHHQK
notes: domain: Aβ1-16; also called N-terminal part of the Aβ peptide; Aβ1-16 peptide
B2: mouse monoclonal antibody 158 (mAb158) (antibody, V domains shown)
VH: DVQLVESGGGLVQPGGSRKLSCAASGFTFSSFGMHWVRQAPEKGLEWVAYISSGSSTIYYGDTVKGRFTISRDNPKNTLFLQMTSLRSEDTAMYYCAREGGYYYGRSYYTMDYWGQGTSVTVSS
VL: DVLMTQTPLSLPVSLGDQASISCRSSQSIVHSNGNTYLEWYLQKPGQSPKLLIYKVSNRFSGVPDRFSGSGSGTDFTLKISRVEAEDLGIYYCFQGSHVPPTFGGGTKLEIK
notes: Mouse hybridoma IgG with a kappa light chain; In the sandwich ELISA the detecting copy was biotinylated; also called BA9

What was measured:
6E10 = test: 6E10-6E10 sandwich ELISA, Aβ1-16 competing with 50 pM Aβ protofibrils
Source text: (§1) A large excess of monomeric Aβ, holoAPP and APP-fragments, naturally occurring in biological samples, could interfere with the Aβ protofibril analysis by occupying binding sites of the capture antibody coat, thus inhibiting the protofibrils from binding. This problem was investigated by adding an increasing excess of Aβ1-16 to a fixed concentration of Aβ protofibrils (50 pM, expressed as monomer units) and analyzing it with both the mAb158 ELISA and a 6E10-6E10 sandwich ELISA (FIG. 6C). […] Moreover, when synthetic Aβ protofibrils was added to mock HEK cell culture media or non-transgenic mouse brain homogenates, 90% of the signal was recovered (data not shown).

[1] = biological target: B2; test: mAb158 sandwich ELISA, Aβ1-16 competing with 50 pM Aβ protofibrils
Source text: as §1

Aβ1-16 = biological target: B1; test: mAb158 sandwich ELISA with excess Aβ1-16 added to 50 pM Aβ protofibrils
Source text: as §1

AβArc protofibrils = biological target: T1, AβArc protofibrils (human, UniProt P05067 672-713, limits assumed); test: sandwich ELISA, mAb158 as both capturing and detecting antibody
T1 construct: Used for a standard curve in the mAb158 sandwich ELISA; also called Arctic Aβ protofibrils
Source text: Establishment of an Aβ protofibril specific sandwich ELISA. To enable measurements of Aβ protofibrils in biological samples a sandwich ELISA with mAb158 as both capturing and detecting antibody was established. This assay measures Aβ protofibrils with a detection limit of 1 pM and with a linear range up to 250 pM (FIG. 6A, lines indicate linear regression of the standard curves). Due to uncertainties concerning the size of the Aβ protofibrils used in the standard curve, the concentration 1 pM is based on the molecular weight of one Aβ monomer (4514 g/mol), Though, since the molecular weight of a protofibril has been estimated to be at least 100 kDa, the limit of detection calculated as molar Aβ protofibrils could be as low as 50 fM. A standard curve of AβArc protofibrils gave a lower signal than wild type Aβ protofibrils, possibly due to differences in Aβ protofibril size (FIGS. 6A, 6B). Titrated synthetic LMW-Aβ (Low Molecular Weight Aβ). By the term "Low Molecular Weight Aβ", it is meant monomers, dimers and trimers of Aβ having a molecular weight of approximately 4-12 kDa. Aβ protofibrils and Aβ1-16 were used to validate the conformation specificity of the ELISA (FIG. 6B), where the hydrophilic Aβ1-16 peptide was used since it is not expected to aggregate. […]

[2] = biological target: T2, C-terminal fragment of Aβ (UniProt P05067 688-711); test: competitive ELISA, plate coated with Aβ protofibrils
T2 construct: domain: C-terminal fragment of Aβ; also called Aβ fragment 17-40
T2 peptide (looked up): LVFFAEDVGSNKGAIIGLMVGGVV
Description: (§2) From competitive ELISA experiments, the antibody has a strong affinity for human Aβ42 wild-type protofibrils, but only very weak affinity for the N-terminal part of the Aβ peptide and Aβ monomers.
In FIG. 2B a competitive ELISA is shown. An ELISA plate was coated with human Aβ protofibrils. […] The incubation mix was added to the microtiter plate wells and free antibody was allowed to bind to immobilized protofibrils in the wells.

medin fibrils = biological target: T3, medin fibrils (UniProt Q08431 268-317, not fully specified); test: dot blot, fibrils on nitrocellulose membrane
T3 construct: Fibrils immobilized on a nitrocellulose membrane
T3 peptide (looked up): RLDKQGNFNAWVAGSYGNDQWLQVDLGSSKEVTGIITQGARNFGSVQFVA
Source text: (§3) Due to technical difficulties in generating protofibrils from other amyloidogenic proteins than Aβ, mAb158 was instead tested against different amyloid fibrils. The dot blot assay was used for these experiments since inhibition ELISA, where the antibody-antigen reactions take place in solution, is not suitable for insoluble antigens like fibrils. The dot blot assay is however not suitable for evaluation of antibody specificity for various Aβ forms, i.e. for measuring differences in selectivity for profibrils and fibrils. […] As positive controls the antibodies 6E10 (Aβ), pAb179 (medin), pAbA110 (IAPP) and mAb211 (α-synuclein) were used (FIG. 5B). Representative blots from repeated experiments (n=3).

α-synuclein fibrils = α-synuclein fibrils (UniProt P37840 1-140); test: dot blot, fibrils on nitrocellulose membrane
Source text: as §3

[3] = biological target: T4, islet amyloid polypeptide (IAPP) fibrils (UniProt P10997 34-70, not fully specified); test: dot blot, fibrils on nitrocellulose membrane
T4 construct: Fibrils immobilized on a nitrocellulose membrane
T4 peptide (looked up): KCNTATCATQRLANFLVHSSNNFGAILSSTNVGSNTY
Source text: as §3

Aβ fibrils = biological target: T5, Aβ fibrils (UniProt P05067 672-713); test: sandwich ELISA, mAb158 as capture and biotinylated mAb158 as detector
T5 construct: Insoluble fibrillar aggregate
Description: as §2
In FIG. 2A a sandwich ELISA is shown. […] Colour development was measured according to the procedure recommended by the manufacturer.

[4] = biological target: T6, human Aβ42 wild-type protofibrils (human, UniProt P05067 672-713); test: competitive ELISA with monomeric and protofibrillar Aβ
T6 construct: domain: Aβ42; Soluble oligomeric aggregate of many Aβ42 peptides; also called Aβ protofibrils; human wild-type Aβ protofibrils
T6 sequence (P05067 672-713 limits assumed): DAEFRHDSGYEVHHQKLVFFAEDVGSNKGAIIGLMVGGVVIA

T1 sequence (P05067 other isoform, or with tags, fused parts or gaps limits assumed): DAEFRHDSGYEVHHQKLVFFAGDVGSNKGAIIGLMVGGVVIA
Chain of 6E10 (VH, as listed by the source, chain 1 of 2): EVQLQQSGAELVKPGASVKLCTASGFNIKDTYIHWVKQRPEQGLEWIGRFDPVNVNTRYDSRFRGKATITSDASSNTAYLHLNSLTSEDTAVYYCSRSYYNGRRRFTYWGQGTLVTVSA
Chain of 6E10 (VL, as listed by the source, chain 2 of 2): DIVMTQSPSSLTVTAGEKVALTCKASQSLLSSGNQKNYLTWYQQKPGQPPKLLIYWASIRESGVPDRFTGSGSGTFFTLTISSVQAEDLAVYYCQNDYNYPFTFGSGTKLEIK
T5 sequence (P05067 672-713): as the sequence (P05067 672-713 limits assumed) above

Binder: B1
molar excess of Aβ1-16 over Aβ protofibrils enough to decrease the signal (6E10): 500 fold | molar excess of Aβ1-16 over Aβ protofibrils that did not disturb the signal [1]: 500000 fold

Binder: B2
binding result (Aβ1-16): binds | binding result (AβArc protofibrils): binds | binding result [2]: no binding | binding result (medin fibrils): no binding | binding result (α-synuclein fibrils): no binding | binding result [3]: no binding | fold less cross-reactivity than with Aβ protofibrils (Aβ fibrils): < 40 fold

binding result [4]: binds
B3: humanized 158 antibody (BAN2401) (antibody, V domains shown)
VH: EVQLVESGGGLVQPGGSLRLSCSASGFTFSSFGMHWVRQAPGKGLEWVAYISSGSSTIYYGDTVKGRFTISRDNAKNSLFLQMSSLRAEDTAVYYCAREGGYYYGRSYYTMDYWGQGTTVTVS
VL: DVVMTQSPLSLPVTPGAPASISCRSSQSIVHSNGNTYLEWYLQKPGQSPKLLIYKVSNRFSGVPDRFSGSGSGTDFTLRISRVEAEDVGIYYCFQGSHVPPTFGPGTKLEIK

Reference: patent US8025878 (BIOARCTIC NEUROSCIENCE, dated 2011)
